# Experimental data: IntAct's records for PubMed 23918659
# B1: Vacuolar protein sorting-associated protein 33B (Homo sapiens), Q9H267 (parent)
# chain: MAFPHRPDAPELPDFSMLKRLARDQLIYLLEQLPGKKDLFIEADLMSPLDRIANVSILKQHEVDKLYKVENKPALSSNEQLCFLVRPRIKNMRYIASLVNADKLAGRTRKYKVIFSPQKFYACEMVLEEEGIYGDVSCDEWAFSLLPLDVDLLSMELPEFFRDYFLEGDQRWINTVAQALHLLSTLYGPFPNCYGIGRCAKMAYELWRNLEEEEDGETKGRRPEIGHIFLLDRDVDFVTALCSQVVYEGLVDDTFRIKCGSVDFGPEVTSSDKSLKVLLNAEDKVFNEIRNEHFSNVFGFLSQKARNLQAQYDRRRGMDIKQMKNFVSQELKGLKQEHRLLSLHIGACESIMKKKTKQDFQELIKTEHALLEGFNIRESTSYIEEHIDRQVSPIESLRLMCLLSITENGLIPKDYRSLKTQYLQSYGPEHLLTFSNLRRAGLLTEQAPGDTLTAVESKVSKLVTDKAAGKITDAFSSLAKRSNFRAISKKLNLIPRVDGEYDLKVPRDMAYVFGGAYVPLSCRIIEQVLERRSWQGLDEVVRLLNCSDFAFTDMTKEDKASSESLRLILVVFLGGCTFSEISALRFLGREKGYRFIFLTTAVTNSARLMEAMSEVKA
# partner: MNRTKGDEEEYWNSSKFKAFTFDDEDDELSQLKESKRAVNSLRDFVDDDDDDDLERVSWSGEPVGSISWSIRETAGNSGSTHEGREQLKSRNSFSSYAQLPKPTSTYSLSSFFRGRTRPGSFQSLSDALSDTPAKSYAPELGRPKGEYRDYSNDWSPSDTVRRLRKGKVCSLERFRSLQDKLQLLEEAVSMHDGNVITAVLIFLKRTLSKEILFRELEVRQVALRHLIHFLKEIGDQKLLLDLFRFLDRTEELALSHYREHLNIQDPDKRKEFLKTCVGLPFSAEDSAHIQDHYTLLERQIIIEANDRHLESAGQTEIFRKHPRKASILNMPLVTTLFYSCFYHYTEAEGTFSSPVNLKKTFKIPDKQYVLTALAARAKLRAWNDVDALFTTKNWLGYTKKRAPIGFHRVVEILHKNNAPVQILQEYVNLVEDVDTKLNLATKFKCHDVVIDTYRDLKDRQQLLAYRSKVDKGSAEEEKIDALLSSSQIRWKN
# Variants of: B1
# Conditions: with spe39_human VIPAS39, Q9H9C1
row,effect of a mutation on the interaction,Variant
1,disrupting interaction,V251A;D252A;D253A
2,disrupting interaction,V235A;D236A;F237A
3,disrupting interaction,D232A;R233A;D234A

# Variants of: B1
# Conditions: with spe39_human VIPAS39, Q9H9C1
# Remark: another data set of the same source
row,effect of a mutation on the interaction,Variant
1,decreasing interaction,S243F
2,decreasing interaction,D252E
3,decreasing interaction,D234H

# Variants of: B1
# Conditions: with spe39_human VIPAS39, Q9H9C1
# Remark: another data set of the same source
row,effect of a mutation on the interaction,Variant
1,decreasing interaction,L30P
2,decreasing interaction,G249V

# Variants of: B1
# Conditions: with spe39_human VIPAS39, Q9H9C1
# Remark: another data set of the same source
row,effect of a mutation on the interaction,Variant
1,disrupting interaction,L30P
